Laboratory results as given in patent US20230235004A1.

Biological target: recombinant mouse MAdCAM-1 (mouse) (UniProt Q61826)
Assay: Octet

Sequence of recombinant mouse MAdCAM-1 (mouse) (Q61826 22-364 limits assumed): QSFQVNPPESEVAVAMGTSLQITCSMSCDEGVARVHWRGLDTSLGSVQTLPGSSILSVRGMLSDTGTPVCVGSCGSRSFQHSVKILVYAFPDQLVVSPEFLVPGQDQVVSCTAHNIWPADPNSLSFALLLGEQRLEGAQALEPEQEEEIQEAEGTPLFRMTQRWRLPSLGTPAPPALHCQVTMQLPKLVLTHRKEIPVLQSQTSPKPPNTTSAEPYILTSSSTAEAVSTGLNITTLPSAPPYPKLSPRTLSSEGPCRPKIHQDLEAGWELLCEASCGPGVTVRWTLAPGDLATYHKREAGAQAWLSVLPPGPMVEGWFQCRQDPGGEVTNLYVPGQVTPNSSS

MAdCAM Octet Binding: 0.16
B1: MAdCAM antibody Table 1 clone 1 (scFv)
scFv: EVQLLESGGGLVQPGGSLRLSCAASGFTFSSYGMHWVRQAPGKGLEWVAVISDDGSDKYYADSVKGRFTISRDNSKNTLYLQMNSLRAEDTAVYYCTTSKYYYYYGMDVWGQGTTVTVSSGGGGSGGGGSGGGGSGGGGSDIQMTQSPSSLSASVGDRVTITCQASQDISKSLNWYQQKPGKAPKLLIYAASSLQSGVPSRFSGSGSGTDFTLTISSLQPEDFATYYCQQGYSTPLTFGGGTKVEIK
